Measurements as given in paper PMC8324831, “A synthetic nanobody targeting RBD protects hamsters from SARS-CoV-2 infection” (Nature Communications, 2021).
Residue numbers refer to the chain shown, from its start.

B1: SR6 (VHH)
VHH: QVQLVESGGGLVQAGGSLRLSCAASGFPVGQQEMTWYRQAPGKEREWVAAILSEGNGTEYADSVKGRFTISRDNAKNTVYLQMNSLKPEDTAVYYCAVYVGATYIGQGTQVTVS
B2: SR10 (VHH)
VHH: B1 VHH with G30N, Q31K, Q32R, L52T, N56R, G57S, A97Y, Y99F, A102S, T103S
B3: SR42 (VHH)
VHH: B1 VHH with G30Q, Q32R, L52M, E54K, N56V, G57H, A97H, T103S, I105F
B4: SR38 (VHH)
VHH: B1 VHH with G30N, Q32E, T35E, L52K, E54W, N56T, G57L, E59A, Y99H, A102Q
B5: SR35 (VHH)
VHH: QVQLVESGGGLVQAGGSLRLSCAASGFPVKHQTMEWYRQAPGKEREWVAAIMSKGRKTEYADSVKGRFTISRDNAKNTVYLQMNSLKPEDTAVYHCHVYVGATYFGQGTQVTVS
B6: SR1 (VHH)
VHH: QVQLVESGGGLVQAGGSLRLSCAASGFPVAAYEMEWYRQAPGKEREWVAAINSMGDQTYYADSVKGRFTISRDNAKNTVYLQMNSLKPEDTAVYYCYVYVGFSYIGQGTQVTVS
B7: SR25 (VHH)
VHH: B6 VHH with A30N, A31T, Y32A, E35V, N52Y, M54E, D56P, Q57I, Y59E, F102S
B8: SR23 (VHH)
VHH: B6 VHH with A30Y, A31T, Y32S, N52A, M54T, D56A, Q57E, Y59A, F102R
B9: SR39 (VHH)
VHH: B6 VHH with A30D, Y32S, N52E, M54Q, D56Y, Q57E, F102S
B10: SR16 (VHH)
VHH: B6 VHH with A30K, A31K, E35T, N52T, M54K, D56T, Q57Y, F102Y, I105L
B11: SR22 (VHH)
VHH: B6 VHH with A31S, Y32H, N52A, M54S, D56Q, Q57W, F102Q
B12: SR33 (VHH)
VHH: B6 VHH with A30G, A31S, Y32N, N52Q, M54S, D56V, Q57F, F102G, I105L
B13: SR15 (VHH)
VHH: B6 VHH with A30K, A31H, Y32A, N52S, M54N, D56S, Q57E, Y99W, F102Q
B14: SR30 (VHH)
VHH: B6 VHH with A30R, A31K, Y32H, N52S, M54K, D56S, Q57N, F102A
B15: SR9 (VHH)
VHH: B6 VHH with A30I, N52T, M54S, D56T, Q57S, F102Q, I105L
B16: SR20 (VHH)
VHH: B6 VHH with A30T, A31S, N52A, M54W, D56Y, Q57H, F102G
B17: SR2 (VHH)
VHH: B1 VHH with G30K, L52E, E54N, N56H, A97Y, A102Q, T103S
B18: SR41 (VHH)
VHH: B6 VHH with A30G, A31S, Y32T, N52S, M54T, D56H, Q57Y, Y59H, F102G, I105L
B19: SR26 (VHH)
VHH: B6 VHH with A30N, A31T, Y32R, N52S, M54N, D56H, Q57K, F102R
B20: SR13 (VHH)
VHH: B6 VHH with A30D, A31Y, Y32M, Y37F, N52T, M54N, D56R, Q57E, I70V, F102S
B21: SR12 (VHH)
VHH: B6 VHH with A30N, A31M, Y32Q, N52S, M54T, D56W, Q57V, F102A
B22: SR21 (VHH)
VHH: B6 VHH with A30S, A31K, Y32T, N52A, M54A, D56A, Q57E, F102Q
B23: SR43 (VHH)
VHH: B6 VHH with A30K, A31K, Y32H, N52Q, M54K, D56Y, Q57T, F102E
B24: SR28 (VHH)
VHH: B6 VHH with A30K, A31M, Y32A, N52Q, M54A, D56R, Q57E, F102A, S103G
B25: SR3 (VHH)
VHH: B6 VHH with A30W, A31Q, Y32E, N52T, M54Y, Q57T, Y97V, F102G, S103T
B26: SR40 (VHH)
VHH: B6 VHH with A30D, A31S, Y32Q, N52S, M54N, D56K, Q57S, F102L
B27: SR18 (VHH)
VHH: B6 VHH with A30W, A31F, Y32Q, N52S, M54Q, D56T, Q57H, F102A, I105L
B28: SR8 (VHH)
VHH: B6 VHH with A30Y, A31K, Y32R, E35T, N52S, M54K, D56V, Q57H, Y59E, F102K
B29: SR17 (VHH)
VHH: B6 VHH with A30E, A31G, Y32S, N52E, M54N, D56T, Q57H, Y59H, F102A, S103G
B30: SR24 (VHH)
VHH: B1 VHH with G30N, Q31A, Q32M, L52M, N56T, G57W, A97Y, T103S
B31: SR5 (VHH)
VHH: B6 VHH with S21R, A30E, A31T, Y32T, N52S, M54Y, D56S, Q57E, F102T, I105L
B32: SR36 (VHH)
VHH: B6 VHH with A30Y, A31M, Y32E, N52A, M54Y, D56S, Q57E, F102Q
B33: SR37 (VHH)
VHH: B1 VHH with G30S, Q31T, Q32A, L52E, E54Y, G57S, A97Y, A102Y, T103S
B34: SR11 (VHH)
VHH: B6 VHH with A30Y, A31S, Y32M, N52S, M54W, D56N, Q57E, Y59H, F102A
B35: SR29 (VHH)
VHH: B1 VHH with G30S, Q32R, L52E, N56E, G57Q, A97Y, A102R, T103S
B36: SR19 (VHH)
VHH: B6 VHH with A30N, A31T, Y32M, M54S, D56Q, Q57E, F102Q
B37: SR44 (VHH)
VHH: QVQLVESGGGLVQAGGSLRLSCAASGFPVGTAQMAWYRQAPGKEREWVAAITSYGEYTLYADSVKGRFTISRDNAKNTVYLQMNSLKPEDTAVYYCAVHVGFWYTGQGTQVTVS
B38: SR7 (VHH)
VHH: QVQLVESGGGLVQAGGSLRLSCAASGFPVWSNEMEWYRQAPGKEREWVAAITSYGTTEYADSVKGRFTISRDNAKNTVYLQMNSLKPEDTAVYYCYVYVGYSYIGQGTQVTVS
B39: SR14 (VHH)
VHH: QVQLVESGGGLVQAGGSLRLSCAASGFPVDSEEMTWYRQAPGKEREWVAAITSDGDITEYADSVKGRFTISRDNAKNTVYLQMNSLKPEDTAVYYCYVWVGRSYLGQGTQVTVS
B40: SR31 (VHH)
VHH: QVQLVESGGGLVQAGGSLRLSCAASGFPVWQGEMAWYRQAPGKEREWVAAISSMGYKTYYADSVKGRFTISRDNAKNTVYLQMNSLKPEDTAVYYCAVMVGFWYAGQGTQVTVS
B41: SR32 (VHH)
VHH: B37 VHH with G30N, T31V, Q33K, T52D, Y54H, E56A, Y57Q, L59H, T105A
B42: SR34 (VHH)
VHH: QVQLVESGGGLVQAGGSLRLSCAAGGFPVKDHEMEWYRQAPGKEREWVAAITSSGWGTNTYYADSVKGRFTISRDNAKNTVYLQMNSLKPEDTAVYYCYVYVGSSYIGQGTQVTVS
B43: SR27 (VHH)
VHH: QVQLVESGGGLVQAGGSLRLSCAASGFPVWEAEMEWYRQAPGKEREWVAAISSIGTSTAYADSVKGRFTISRDNAKNTVYLQMNSLKPEDTAVYYCIVYVGKTYIGQGTQVTVS

target: SARS-CoV-2 S-RBD with Avi-tag and deca-His tag (residues 330-531) (SARS-CoV-2, UniProt P0DTC2, biotin on the Avi tag (BirA) where immobilised on streptavidin sensors or used in ELISA and FSEC)

Row | Binder | binding result
1 | B1 | binds
2 | B2 | binds
3 | B3 | binds
4 | B4 | binds
5 | B5 | binds
6 | B6 | binds
7 | B7 | binds
8 | B8 | binds
9 | B9 | binds
10 | B10 | binds
11 | B11 | binds
12 | B12 | binds
13 | B13 | binds
14 | B14 | binds
15 | B15 | binds
16 | B16 | binds
17 | B17 | binds
18 | B18 | binds
19 | B19 | binds
20 | B20 | binds
21 | B21 | binds
22 | B22 | binds

Row | Binder | binding result
23 | B23 | binds
24 | B24 | binds
25 | B25 | binds
26 | B26 | binds
27 | B27 | binds
28 | B28 | binds
29 | B29 | binds
30 | B30 | binds
31 | B31 | binds
32 | B32 | binds
33 | B33 | binds
34 | B34 | binds
35 | B35 | binds
36 | B36 | binds
37 | B37 | binds
38 | B38 | binds
39 | B39 | binds
40 | B40 | binds
41 | B41 | binds
42 | B42 | binds
43 | B43 | binds
